The target in one test is T1, mouse GPR120 (Mus musculus, UniProt Q7TMA4).
T1 construct: expressed in transfected cells; host or cells: SE302 cells (HEK293 clone carrying a CRE-PLAP reporter), transduced with retrovirus from pBabeCL(mGPR120)IH and selected with hygromycin
T1 sequence (Q7TMA4 1-361): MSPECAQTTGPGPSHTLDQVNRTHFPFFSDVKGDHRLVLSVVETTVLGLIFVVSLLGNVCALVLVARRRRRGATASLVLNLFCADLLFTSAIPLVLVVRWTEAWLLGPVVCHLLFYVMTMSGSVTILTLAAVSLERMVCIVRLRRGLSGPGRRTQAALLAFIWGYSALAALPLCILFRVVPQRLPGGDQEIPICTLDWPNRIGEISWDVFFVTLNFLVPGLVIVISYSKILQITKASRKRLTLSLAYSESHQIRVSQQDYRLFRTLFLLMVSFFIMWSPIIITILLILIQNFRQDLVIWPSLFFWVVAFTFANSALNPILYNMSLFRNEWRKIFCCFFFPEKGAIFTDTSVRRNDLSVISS
The experiment in a line: PLAP reporter transcription activity in mGPR120-SE302 cells (CRE-PLAP reporter). Type of test: cell-based. The conditions noted are these: HEK293-derived SE302 cells expressing mouse GPR120; forskolin 1.0 μM plus sample, 24 hours; chemiluminescence of supernatant; compared to control cells (GFP-SE302). Here is the method: (§1) Using a retrovirus vector plasmid pBabeCLcre4vPdNN capable of inducing a reporter PLAP gene by a cyclic AMP responsive element sequence, a retrovirus vector was prepared according to the method described in Example 4. The retrovirus vector prepared was introduced into HEK293 cells and cells were cloned by a limiting dilution method.
(§2) The SE302 cells constructed in Example 5 were seeded onto a collagen coated 6 well plate (Asahi Technoglass, Co.) at 1.2×10^5 cells per well. Cells were cultured with 2 mL/well of DMEM medium (Sigma, Co.) (containing 10% FBS, penicillin 100 units/mL and streptomycin 100 μg/mL). On the following day, solutions of the virus vector containing GPR120 or mGPR120 obtained in Example 4, and polybrene (also called hexadimethrine bromide, Sigma, Co.) at a final concentration of 8 μg/mL were added to SE302 cells. Cells were cultured with the medium containing 500 μg/mL of hygromycin (Invitrogen, Co.) and cells grown under this condition were used for experiments as SE302 cells introduced with GPR120 gene, and SE302 cells introduced with mGPR120 gene (referred to as “GPR120-SE302 cells” and “mGPR120-SE302 cells”, respectively hereinafter).
The aforementioned GPR120-SE302 cells or mGPR120-SE302 cells constructed in Example 6 were suspended in the culture medium for measurement of transcription activity (DMEM containing FBS which was heat-treated at 65° C. for 30 min at a final concentration of 10%) and seeded onto a 96 well plate (Becton Dickinson, Co.) at 1×10^4 cells/well. In addition, as control cells, SE302 cells expressing green fluorescent protein (GFP, Invitrogen, Co.) (referred to as “GFP-SE302 cells” hereinafter) were used. Specifically, GFP-302 cells were prepared by obtaining a virus for expressing GFP using the method shown in Example 3 and 4, and transfecting SE302 cells with the virus using the method shown in Example 6. Cells were cultured for 24 hours after seeding, and forskolin prepared at a final concentration of 1.0 μM and a sample were added. Cells were cultured for another 24 hours and 5 μL of the cell supernatant was recovered and transferred to a polypropylene 384-well white plate (Nalge Nunc International, Co.). Then, 20 μL of the assay buffer (280 mmol/L Na2CO3—NaHCO3, 8 mmol/L MgSO4, pH 10) and 25 μL of Lumiphos530 (Lumigen, Co.) were added. Following a 2-hour reaction at room temperature, chemiluminescence in each well was measured using a Fusion plate reader (Perkin Elmer, Co.) and was defined as the transcription activity. Based on these measured values, stimulation/inhibition of transcription activity was calculated using the equation (I) shown below and described as [% of control]. Activities of the group with a sample added were calculated using the value of control placed on each plate. [% of control]=(X−C)/(F−C)×100 (I) Herein, in the above equation: • X: PLAP transcription activity in the group added with a sample, • F: Mean value of transcription activities in 2 wells of a positive control (no sample added, stimulated with forskolin), • C: Mean value of transcription activities in 2 wells of a negative control (no sample added, not stimulated with forskolin).

A further test deals with T2, human GPR120 (Homo sapiens, UniProt Q5NUL3).
T2 construct: open reading frame which starts with ATG of the nucleotide number 1-3 and ends with TAA of the nucleotide number 1084-1086; expressed in transfected cells; host or cells: SE302 cells (HEK293 clone carrying a CRE-PLAP reporter), transduced with retrovirus from pBabeCL(GPR120)IH and selected with hygromycin
T2 sequence (Q5NUL3 1-361): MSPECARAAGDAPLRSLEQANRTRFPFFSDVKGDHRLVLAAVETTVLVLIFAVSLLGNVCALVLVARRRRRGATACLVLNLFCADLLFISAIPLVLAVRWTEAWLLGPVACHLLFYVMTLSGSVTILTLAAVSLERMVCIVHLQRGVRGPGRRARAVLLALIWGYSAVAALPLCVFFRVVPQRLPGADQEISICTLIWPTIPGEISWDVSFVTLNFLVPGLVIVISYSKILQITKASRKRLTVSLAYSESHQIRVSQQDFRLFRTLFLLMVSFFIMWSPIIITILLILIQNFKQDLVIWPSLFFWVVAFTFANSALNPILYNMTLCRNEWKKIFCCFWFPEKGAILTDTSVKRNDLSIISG
The experiment in a line: PLAP reporter transcription activity in GPR120-SE302 cells (CRE-PLAP reporter). The conditions noted are these: HEK293-derived SE302 cells expressing human GPR120; forskolin 1.0 μM plus sample, 24 hours; chemiluminescence of supernatant; compared to control cells (GFP-SE302). It is filed as cell-based. The procedure: as §1, §2
The aforementioned GPR120-SE302 cells or mGPR120-SE302 cells constructed in Example 6 were suspended in the culture medium for measurement of transcription activity (DMEM containing FBS which was heat-treated at 65° C. for 30 min at a final concentration of 10%) and seeded onto a 96 well plate (Becton Dickinson, Co.) at 1×10^4 cells/well. In addition, as control cells, SE302 cells expressing green fluorescent protein (GFP, Invitrogen, Co.) (referred to as “GFP-SE302 cells” hereinafter) were used. Specifically, GFP-302 cells were prepared by obtaining a virus for expressing GFP using the method shown in Example 3 and 4, and transfecting SE302 cells with the virus using the method shown in Example 6. Cells were cultured for 24 hours after seeding, and forskolin prepared at a final concentration of 1.0 μM and a sample were added. Cells were cultured for another 24 hours and 5 μL of the cell supernatant was recovered and transferred to a polypropylene 384-well white plate (Nalge Nunc International, Co.). Then, 20 μL of the assay buffer (280 mmol/L Na2CO3—NaHCO3, 8 mmol/L MgSO4, pH 10) and 25 μL of Lumiphos530 (Lumigen, Co.) were added. Following a 2-hour reaction at room temperature, chemiluminescence in each well was measured using a Fusion plate reader (Perkin Elmer, Co.) and was defined as the transcription activity. Based on these measured values, stimulation/inhibition of transcription activity was calculated using the equation (I) shown below and described as [% of control]. Activities of the group with a sample added were calculated using the value of control placed on each plate. […]

The results in this text go back to US8399204B2, “Method for screening of substance which alter GPR120-mediated cell-stimulating activities” (Eisai R&D Management Co., Ltd., priority 2005, dated 2013).

Regarding “porcine pancreatic sPLA2: commercially-available (Sigma) porcine pancreatic sPLA2, reported to be mainly Group IB sPLA2 (Swiss Prot P00592)”, the “PLAP activity in mGPR120-SE302 cells” value with mouse GPR120 is “concentration dependent elevation of PLAP activity”. For the same molecule, in the test with human GPR120, the “PLAP activity in GPR120-SE302 cells” value was “concentration dependent elevation of PLAP activity”.

B1: recombinant hGX-sPLA2: C-terminal FLAG-tagged human GX-sPLA2 (SEQ ID NO 43) produced in silkworm pupae, purified (protein, listed as Homo sapiens)
chain: MGPLPVCLPIMLLLLLPSLLLLLLLPGPGSGEASRILRVHRRGILELAGTVGCVGPRTPIAYMKYGCFCGLGGHGQPRDAIDWCCHGHDCCYTRAEEAGCSPKTERYSWQCVNQSVLCGPAENKCQELLCKCDQEIANCLAQTEYNLKYLFYPQFLCEPDSPKCDDYKDDDDK
modifications: C-terminal FLAG tag
For B1, the “PLAP activity in mGPR120-SE302 cells” value in the test with mouse GPR120 was “concentration dependent elevation of PLAP activity”. The “PLAP activity in GPR120-SE302 cells” value with human GPR120 was “concentration dependent elevation of PLAP activity”.

B2: recombinant mGX-sPLA2: C-terminal FLAG-tagged mouse GX-sPLA2 (SEQ ID NO 45) from baculovirus-infected Sf-9 cells, purified (protein, listed as Mus musculus)
chain: MLLLLLLLLLGPGPGFSEATRRSHVYKRGLLELAGTLDCVGPRSPMAYMNYGCYCGLGGHGEPRDAIDWCCYHHDCCYSRAQDAGCSPKLDRYPWKCMDHHILCGPAENKCQELLCRCDEELAYCLAGTEYHLKYLFFPSILCEKDSPKCNDYKDDDDK
modifications: C-terminal FLAG tag
B2: the “PLAP activity in mGPR120-SE302 cells” value in the test with mouse GPR120 is “concentration dependent elevation of PLAP activity”. For the same molecule, the “PLAP activity in GPR120-SE302 cells” value in the test with human GPR120 is “concentration dependent elevation of PLAP activity”.

B3: GX-sPLA2: rat Group X secretory phospholipase A2 (SEQ ID NO 23) purified from rat intestinal tract and testis extracts (protein, listed as Rattus norvegicus)
chain: GLLELAGTLDCVGPRSPMAYMNYGCYCGLGGHGEPRDAIDWCCYYHDCCYSQAQDAGCSPKLYRYPWKCMDHRILCGPAENKCQELLCRCDETLAYCLADTEYHLKYLFFPSVLCEKDSPKCN
On to B3, for which the “PLAP activity in GPR120-SE302 cells” value with human GPR120 is recorded as “elevate PLAP activity specifically in GPR120-SE302 cells”.

B4: mGX-sPLA2-His: purified mouse C-terminal His-tagged GX-sPLA2 from baculovirus-infected Sf9 cells (protein, UniProt Q9QXX3 29-151, looked up)
Group 10 secretory …: GLLELAGTLDCVGPRSPMAYMNYGCYCGLGGHGEPRDAIDWCCYHHDCCYSRAQDAGCSPKLDRYPWKCMDHHILCGPAENKCQELLCRCDEELAYCLAGTEYHLKYLFFPSILCEKDSPKCN
modifications: C-terminal His6 tag
notes: purified mouse C-terminal His-tagged GX-sPLA2 from baculovirus-infected Sf9 cells
On to B4, for which, in the test with mouse GPR120, the “PLAP activity in mGPR120-SE302 cells” value is “concentration dependent elevation of PLAP activity”.

B5: hGX-sPLA2-His: purified human C-terminal His-tagged GX-sPLA2 from baculovirus-infected Sf9 cells (protein, UniProt O15496 43-165, looked up)
Group 10 secretory …: GILELAGTVGCVGPRTPIAYMKYGCFCGLGGHGQPRDAIDWCCHGHDCCYTRAEEAGCSPKTERYSWQCVNQSVLCGPAENKCQELLCKCDQEIANCLAQTEYNLKYLFYPQFLCEPDSPKCD
modifications: C-terminal His6 tag
notes: purified human C-terminal His-tagged GX-sPLA2 from baculovirus-infected Sf9 cells
As for B5, the “PLAP activity in mGPR120-SE302 cells” value with mouse GPR120 is listed as “concentration dependent elevation of PLAP activity”.
